The values that follow come from US20150315607A1 (ACADEMIA SINICA, published 2015).

Sequences and labels used below:
B1: transcription factor bHLH142 (other)
chain: MYHPQCELLMPLESLEMDVGQSHLAAAVAAAMPGELNFHLLHSLDAAAAAASSTAASASSQPTVDYFFGGADQQPPPPAAMQYDQLAAPHHHQTVAMLRDYYGGHYPPAAAAAAATEAYFRGGPRTAGSSSLVFGPADDESAFMVGPFESSPTPRSGGGRKRSRATAGFHGGGPANGVEKKEKQRRLRLTEKYNALMLLIPNRTKEDRATVISDAIEYIQELGRTVEELTLLVEKKRRRREMQGDVVDAATSSVVAGMDQAAESSEGEVMAAAAMGAVAPPPRQAPIRSTYIQRRSKETFVDVRIVEDDVNIKLTKRRRDGCLAAASRALDDLRLDLVHLSGGKIGDCHIYMFNTKIHSGSPVFASAVASRLIEVVDEY
notes: Rice bHLH transcription factor as named in general statements and as 35S-driven effector in the EAT1pro-Luc protoplast assay; also called Os01g0293100
B2: NYN1-bHLH142 (other, not shown: large carriers)
chain: B1 chain
notes: BiFC construct expressed in rice protoplasts
B3: ETERNAL TAPETUM 1 (EAT1) (other)
chain: MIVGAGYFEDSHDQSLMAGSLIHDSNQAPASSENTSIDLQKFKVHPYSTEALSNTANLAEAARAINHLQHQLEIDLEQEVPPVETANWDPAICTIPDHIINHQFSEDPQNILVEQQIQQYDSALYPNGVYTPAPDLLNLMQCTMAPAFPATTSVFGDTTLNGTNYLDLNGELTGVAAVPDSGSGLMFASDSALQLGYHGTQSHLIKDICHSLPQNYGLFPSEDERDVIIGVGSGDLFQEIDDRQFDSVLECRRGKGEFGKGKGKANFATERERREQLNVKFRTLRMLFPNPTKNDRASIVGDAIEYIDELNRTVKELKILVEQKRHGNNRRKVLKLDQEAAADGESSSMRPVRDDQDNQLHGAIRSSWVQRRSKECHVDVRIVDDEVNIKLTEKKKANSLLHAAKVLDEFQLELIHVVGGIIGDHHIFMFNTKVSEGSAVYACAVAKKLLQAVDVQHQALDIFN

Some results are limits rather than exact numbers.

The assay “ETERNAL TAPETUM 1 (EAT1)” deals with B3. In words: yeast two-hybrid and BiFC (FIG. 13).
The next assay addresses TAPETUM …ON …ON (TDR1) (Oryza sativa (rice), UniProt Q6YUS3 1-552). In words: cell-based or functional assay.
A further assay has as its target T1, CYN1-EAT1 (Oryza sativa (rice), UniProt Q7X8R0 1-464).
T1 construct: BiFC construct expressed in rice protoplasts
T1 sequence: B3 chain
In words: BiFC in rice protoplasts.

Description for CYN1-EAT1: Next, the tested genes were introduced into pSAT5-DEST_CYN1 and pSAT4(A)-DEST_NYN1. Ballistic bombardment-mediated transient transformation in rice protoplasts was carried out following a previously published protocol³⁶. Florescence images were photographed on a LSM 780 Plus ELYRA S.1 confocal microscope with Plan-Apochromat 40×/1.4 oil objective lens (Zeiss, Germany).

With B1, in the assay with ETERNAL TAPETUM 1 (EAT1), the binding result is “no binding”. For the same molecule, the “Luc expression from the EAT1 promoter (EAT1pro-Luc), transient assay in rice protoplasts” value in the assay with TAPETUM …ON …ON (TDR1) is no more than 30 fold.
Turning to B2, the binding result with CYN1-EAT1 was “no binding”.
With B3, in the assay with TAPETUM …ON …ON (TDR1), the “Luc expression from the EAT1 promoter (EAT1pro-Luc) with bHLH142, TDR1 and additional EAT1, transient assay in rice protoplasts” value worked out at 18 fold.
